Values joined by “and” are separate entries in the source; they are usually repeats but may differ in a detail not shown here. Equal values may be shown once.
B1: purified NPTX1-flag (pEB Multi Neo Nptx1-flag-IRES-GFP, plasmid #3) (natural protein, mouse, UniProt Q62443 23-432, looked up)
chain: QDFGPTRFICTSVPVDADMCAASVAAGGAEELRSNVLQLRETVLQQKETILSQKETIRELTTKLGRCESQSTLDSGPGEARSGGGRKQPGSGKNTMGDLSRTPAAETLSQLGQTLQSLKTRLENLEQYSRLNSSSQTNSLKDLLQSKIDDLERQVLSRVNTLEEGKGGPKNDTEERAKIESALTSLHQRISELEKGQKDNRPGDKFQLTFPLRTNYMYAKVKKSLPEMYAFTVCMWLKSSAAPGVGTPFSYAVPGQANELVLIEWGNNPMEILINDKVAKLPFVINDGKWHHICVTWTTRDGVWEAYQDGTQGGNGENLAPYHPIKPQGVLVLGQEQDTLGGGFDATQAFVGELAHFNIWDRKLTPGEVYNLATCSSKALSGNVIAWAESQIEIFGGATKWTFEACRQIN

Assays:
[1] = target: the molecule itself; test: SEC
[2] = target: the molecule itself; test: native gel or EMSA
[3] = target: B1; test: immunostaining of cells or tissue

Binder | stoichiometry N [1] | stoichiometry N [2] | binding result [3]
purified NPTX1-flag-strep (pEB Multi Neo Nptx1-flag-TEV-strep-IRES-GFP, plasmid #4) (natural protein, mouse, UniProt Q62443 23-432, looked up) QDFGPTRFICTSVPVDADMCAASVAAGGAEELRSNVLQLRETVLQQKETILSQKETIRELTTKLGRCESQSTLDSGPGEARSGGGRKQPGSGKNTMGDLSRTPAAETLSQLGQTLQSLKTRLENLEQYSRLNSSSQTNSLKDLLQSKIDDLERQVLSRVNTLEEGKGGPKNDTEERAKIESALTSLHQRISELEKGQKDNRPGDKFQLTFPLRTNYMYAKVKKSLPEMYAFTVCMWLKSSAAPGVGTPFSYAVPGQANELVLIEWGNNPMEILINDKVAKLPFVINDGKWHHICVTWTTRDGVWEAYQDGTQGGNGENLAPYHPIKPQGVLVLGQEQDTLGGGFDATQAFVGELAHFNIWDRKLTPGEVYNLATCSSKALSGNVIAWAESQIEIFGGATKWTFEACRQIN | ~15 |  | 
B1 |  | 15 | 
purified HA-C1QL3 (pEB Multi Neo HA-C1ql3-IRES-GFP) (natural protein, mouse, UniProt Q9ESN4 21-255, looked up) HYEMLGTCRMVCDPYGGTKAPSTAATPDRGLMQSLPTFIQGPKGEAGRPGKAGPRGPPGEPGPPGPVGPPGEKGEPGRQGLPGPPGAPGLNAAGAISAATYSTVPKIAFYAGLKRQHEGYEVLKFDDVVTNLGNHYDPTTGKFTCSIPGIYFFTYHVLMRGGDGTSMWADLCKNNQVRASAIAQDADQNYDYASNSVVLHLEPGDEVYIKLDGGKAHGGNNNKYSTFSGFIIYAD |  | 6 and 18 | binds

From PMC11565477 (FASEB journal : official publication of the Federation of …, 2021)
